Series [1] concerns the target T1, Lin28-CSD (Homo sapiens, UniProt Q9H9Z2 32-136).
T1 sequence: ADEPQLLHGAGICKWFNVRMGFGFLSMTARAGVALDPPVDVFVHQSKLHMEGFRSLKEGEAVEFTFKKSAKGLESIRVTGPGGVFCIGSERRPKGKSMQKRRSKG
Kind of series: NMR (1H-15N HSQC); 298 K; EMSA: 20 mM Tris pH 7.6, 40 mM NaCl, 0.5 mM DTT, room temperature, 30 min; NMR: 50 mM potassium phosphate pH 7.0, 50 uM 15N-protein, 298 K (C10) or 303 K (C20). To be noted: protein: recombinant; tags: His6.

Series [2] addresses YB-1-CSD (Homo sapiens, UniProt P67809 1-180). Put plainly: NMR (1H-15N HSQC); 298 K; spectra stated as already published (ref 7); EMSA: 20 mM Tris pH 7.6, 40 mM NaCl, 0.5 mM DTT, room temperature, 30 min; NMR: 50 mM potassium phosphate pH 7.0, 50 uM 15N-protein, 298 K (C10) or 303 K (C20). To be noted: protein: recombinant. A general note: Mobility shift assays separate free from complexed probe on a gel.

The source of these data is article PMC7979924, “Lin28, a major translation reprogramming factor, gains access to YB-1-packaged mRNA through its cold-shock domain”.

Sequence of YB-1-CSD (P67809 1-180): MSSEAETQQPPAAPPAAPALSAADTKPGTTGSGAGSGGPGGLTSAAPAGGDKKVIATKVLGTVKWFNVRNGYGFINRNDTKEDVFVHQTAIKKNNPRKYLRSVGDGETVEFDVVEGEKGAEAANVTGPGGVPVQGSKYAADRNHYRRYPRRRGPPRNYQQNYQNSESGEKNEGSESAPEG

With CCCCCCCCCC (ssDNA) [poly(C) DNA C10], the binding result in series [1] and in series [2] was “binds” each time.
